Results from article PMC10409785 (Nature Communications, 2023).

Biological target: T1, human Uba7 (human, UniProt P41226 1-1012, Cys599 crosslinked to UBE2L6 Cys86 (in the cryo-EM complexes only))
T1 construct: also called hUba7; E1; source: E. coli BL21 codon plus or Hi5 insect cells (baculovirus), purified (Ni-NTA, Superdex 200, Enrich Q); not shown: His6 (insect cell construct), N-terminal, cleaved
T1 sequence: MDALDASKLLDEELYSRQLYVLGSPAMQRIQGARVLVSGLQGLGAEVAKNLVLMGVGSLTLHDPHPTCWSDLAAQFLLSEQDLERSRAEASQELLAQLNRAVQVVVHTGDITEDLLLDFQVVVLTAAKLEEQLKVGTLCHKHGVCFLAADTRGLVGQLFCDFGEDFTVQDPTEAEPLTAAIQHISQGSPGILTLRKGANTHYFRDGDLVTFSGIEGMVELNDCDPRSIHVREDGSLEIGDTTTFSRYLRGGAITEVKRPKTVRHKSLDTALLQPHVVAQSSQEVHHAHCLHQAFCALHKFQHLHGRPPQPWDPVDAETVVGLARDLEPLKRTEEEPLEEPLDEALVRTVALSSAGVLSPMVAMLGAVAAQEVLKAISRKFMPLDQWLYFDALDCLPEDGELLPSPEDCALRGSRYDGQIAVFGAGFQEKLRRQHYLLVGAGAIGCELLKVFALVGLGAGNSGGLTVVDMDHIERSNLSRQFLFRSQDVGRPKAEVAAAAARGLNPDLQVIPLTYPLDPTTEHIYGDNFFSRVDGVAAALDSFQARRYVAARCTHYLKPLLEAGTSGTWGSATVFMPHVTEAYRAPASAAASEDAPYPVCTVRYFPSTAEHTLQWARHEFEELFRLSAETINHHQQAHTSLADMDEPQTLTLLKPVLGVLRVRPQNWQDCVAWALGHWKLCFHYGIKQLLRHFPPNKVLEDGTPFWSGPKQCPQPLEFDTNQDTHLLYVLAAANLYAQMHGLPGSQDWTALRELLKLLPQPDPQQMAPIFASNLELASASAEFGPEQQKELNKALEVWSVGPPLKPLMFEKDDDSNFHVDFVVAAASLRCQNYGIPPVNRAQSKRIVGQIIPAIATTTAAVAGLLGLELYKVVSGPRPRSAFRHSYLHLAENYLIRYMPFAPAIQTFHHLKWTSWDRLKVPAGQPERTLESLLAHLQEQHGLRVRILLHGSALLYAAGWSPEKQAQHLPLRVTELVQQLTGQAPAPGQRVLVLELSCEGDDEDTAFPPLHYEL
Assay: cryo-EM structure; double-loaded Uba7-UBE2L6-ISG15(t)/ISG15(a) mimetic: ISG15 C76S isopeptide-linked to UBE2L6 L121K, UBE2L6 Cys86 (Aldrithiol-4 activated) crosslinked to Uba7 Cys599, then 1.2 molar excess of ISG15, ATP and Mg2+ for 30 min at 4 °C; frozen at 3.0 mg/ml
Conditions: both partners purified

B1: UBE2L6 (C98S/C102S/L121K) (enzyme, human)
chain: MASMRVVKELEDLQKKPPPYLRNLSSDDANVLVWHALLLPDQPPYHLKAFNLRISFPPEYPFKPPMIKFTTKIYHPNVDENGQICLPIISSENWKPSTKTSQVLEALNVLVNRPNIREPKRMDLADLLTQNPELFRKNAEEFTLRFGVDRPS
modifications: Lys121 (L121K) isopeptide-linked to Gly157 of ISG15 C76S; Cys86 activated with Aldrithiol-4 and crosslinked to Uba7 Cys599
notes: The 6XHis-tag was cleaved with TEV protease 'when required'; source: E. coli BL21 codon plus, purified (Ni-NTA, Superdex 75, Enrich Q)
B1: binds.
